The values below come from publication PMC4802922, “Conserved motif VIII of murine DNA methyltransferase Dnmt3a is essential for methylation activity”.

One may read the Kd as the equilibrium constant for the complex coming apart.

For one data set, the target named is Dnmt3a-CD wt (Mus musculus, UniProt O88508 608-908). The experiment in a line: fluorescence polarization; Kd1 (first complex); 0.1 mM AdoHcy; Fluorescence polarization: 10 nM duplex, 0.1 mM AdoHcy, Dnmt3a reaction buffer (composition not given), 25 °C; enzyme up to 600-800 nM. The conditions noted are these: protein: recombinant; tags: His6 (N-terminal in Methods, C-terminal in Results); chain copies: 2; label: 5'-FAM on strand 1 (hexamethylene linker); blunt. A general note: Polarisation of emitted light reports the rotation of a fluorescent probe.
Dnmt3a-CD wt, sequence (O88508 608-908): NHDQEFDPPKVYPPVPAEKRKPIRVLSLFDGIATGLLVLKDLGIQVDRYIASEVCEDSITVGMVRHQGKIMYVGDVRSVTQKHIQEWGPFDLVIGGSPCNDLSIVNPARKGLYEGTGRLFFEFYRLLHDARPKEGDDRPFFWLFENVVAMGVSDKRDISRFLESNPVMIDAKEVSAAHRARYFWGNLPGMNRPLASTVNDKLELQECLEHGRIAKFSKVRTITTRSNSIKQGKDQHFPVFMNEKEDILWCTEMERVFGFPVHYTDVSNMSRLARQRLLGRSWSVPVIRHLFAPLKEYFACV

Another data set has as its target Dnmt3a-CD R200E (Mus musculus, UniProt O88508 608-908, R786E). Briefly: fluorescence polarization; Kd1; 0.1 mM AdoHcy; Fluorescence polarization: 10 nM duplex, 0.1 mM AdoHcy, Dnmt3a reaction buffer (composition not given), 25 °C; enzyme up to 600-800 nM. The conditions noted are these: protein: recombinant; tags: His6; chain copies: 2; label: 5'-FAM on strand 1 (hexamethylene linker); blunt.

Another data set addresses Dnmt3a-CD R200K (Mus musculus, UniProt O88508 608-908, R786K). The data set is described as above. The conditions noted are these: protein: recombinant; tags: His6; chain copies: 2; label: 5'-FAM on strand 1 (hexamethylene linker); blunt.
In another data set the target is Dnmt3a-CD R200A (Mus musculus, UniProt O88508 608-908, R786A). Described as above. The settings on record: protein: recombinant; tags: His6; chain copies: 2; label: 5'-FAM on strand 1 (hexamethylene linker); blunt.
Dnmt3a-CD R200A, sequence (O88508 608-908 R786A): as the sequence (O88508 608-908) above, with R179A counted along it

Dnmt3a-CD R200E, sequence (O88508 608-908 R786E): as the sequence (O88508 608-908) above, with R179E counted along it
Dnmt3a-CD R200K, sequence (O88508 608-908 R786K): as the sequence (O88508 608-908) above, with R179K counted along it

B1: fGCGC/CGCG (dsDNA)
DNA 1: CTGAATACTACTTGCGCTCTCTAACCTGAT
DNA 2: ATCAGGTTAGAGAGCGCAAGTAGTATTCAG
Regarding B1, the Kd with Dnmt3a-CD wt worked out at 73 ± 17 nM; in the data set with Dnmt3a-CD R200E, 159 ± 37 nM; with Dnmt3a-CD R200K, 55 ± 14 nM; in the data set with Dnmt3a-CD R200A, 79 ± 17 nM.
